The values that follow come from article PMC6553639 (Science signaling, 2018).

Positions count from the first letter of the chain named. No end group written: not given here. *: point of attachment. FITC = O=C1OC2(c3ccc(O)cc3Oc3cc(O)ccc32)c2ccc(NC(=S)*)cc21

For assay [1], the target named is COP1 WD40 domain (376–731) (UniProt Q8NHY2 376-731). Description: fluorescence polarisation.
The target of assay [2] is T1, TRIB1(84–372) (human, UniProt Q96RU8 84-372).
T1 sequence (looked up): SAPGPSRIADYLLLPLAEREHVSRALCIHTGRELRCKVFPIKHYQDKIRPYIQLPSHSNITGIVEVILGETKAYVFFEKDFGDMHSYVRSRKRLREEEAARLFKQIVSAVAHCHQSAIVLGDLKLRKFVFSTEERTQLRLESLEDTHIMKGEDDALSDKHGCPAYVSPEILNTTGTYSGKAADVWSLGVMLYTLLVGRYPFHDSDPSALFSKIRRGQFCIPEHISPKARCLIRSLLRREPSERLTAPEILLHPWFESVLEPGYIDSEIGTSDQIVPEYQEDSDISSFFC
Description: ITC. (In general: Isothermal titration calorimetry measures the heat released or taken up as one component is titrated into another.)

In assay [3] the target is T2, GST-TRIB1(84–372) wild type (human, UniProt Q96RU8 84-372).
T2 sequence (looked up): T1 sequence (looked up)
Description: pull-down.

Another assay has as its target T3, GST-TRIB1(84–372) S240W (human, UniProt Q96RU8 84-372, S240W).
T3 sequence (looked up): T1 sequence (looked up) with S157W
As to the kind of experiment: pull-down.

Assay [4] addresses T1, TRIB1(84–372). As to the kind of experiment: differential scanning fluorimetry.

Chain of COP1 WD40 domain (376–731) (Q8NHY2 376-731): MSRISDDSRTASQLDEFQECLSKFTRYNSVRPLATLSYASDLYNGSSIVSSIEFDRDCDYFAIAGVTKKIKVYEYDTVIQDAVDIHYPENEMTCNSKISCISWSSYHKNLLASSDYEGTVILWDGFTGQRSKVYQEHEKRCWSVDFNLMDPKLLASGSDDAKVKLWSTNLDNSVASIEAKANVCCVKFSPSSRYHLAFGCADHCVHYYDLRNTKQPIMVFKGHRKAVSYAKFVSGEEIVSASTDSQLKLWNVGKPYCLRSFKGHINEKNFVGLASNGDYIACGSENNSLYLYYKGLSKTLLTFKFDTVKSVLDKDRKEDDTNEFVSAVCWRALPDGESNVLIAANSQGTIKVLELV

B1: TRIB1 peptide (residues 349 to 367) (peptide, UniProt Q96RU8 349-367, looked up)
peptide: SEIGTSDQIVPEYQEDSDI
With B1, in assay [1], the binding result is listed as “binds”.

B2: C/EBPδ(50–72) fused to MBP (peptide, UniProt P49716 50-72, looked up)
chain: PAMYDDESAIDFSAYIDSMAAVP
Regarding B2, the binding result in the assay with TRIB1(84–372) [2] is recorded as “binds”.

B3: His6MBP-C/EBPα(53–75) (peptide, UniProt P49715 53-75, looked up)
chain: GGICEHETSIDISAYIDPAAFND
B3: the binding result (in assay [3]; in the assay with GST-TRIB1(84–372) S240W; with TRIB1(84–372) [2]) was “binds” in each case.

B4: C/EBPε(31–53) fused to MBP (peptide, UniProt Q15744 31-53, looked up)
chain: GDMCEHEASIDLSAYIESGEEQL
Consider B4, for which, in the assay with TRIB1(84–372) [2], the binding result was “binds”.

B5: C/EBPα degron peptide (53 to 75) (peptide, UniProt P49715 53-75, looked up)
peptide: GGICEHETSIDISAYIDPAAFND
B5: the binding result with TRIB1(84–372) [4] is “binds”.

B6: FITC-TRIB1(349–367) (peptide, UniProt Q96RU8 349-367, looked up)
peptide: {FITC}-SEIGTSDQIVPEYQEDSDI
Regarding B6, the binding result in assay [1] is listed as “binds”.
